Columns and labels:
[1] = tested on: Cc1cc(=O)oc2cc(NC(=O)[C@H](CCCCNC(=O)CCC(=O)O)NC(=O)OCc3ccccc3)ccc12; assay: (§1) Substrate activity at human N-terminal His-tagged SIRT5 (34 to 302 residues) expressed in Escherichia coli assessed as Vmax measured after 1 hr in presence of NAD+ and trypsin by Michaelis-Menten kinetic model based fluorescence assay
[2] = tested on: CC(=O)N[C@@H](CC(C)C)C(=O)NCC(=O)N[C@@H](CO)C(=O)N[C@@H](CCCCNC(=O)CCC(=O)O)C(=O)Nc1ccc2c(C)cc(=O)oc2c1; assay: as §1
[3] = tested on: CC(=O)N[C@@H](Cc1cnc[nH]1)C(=O)N[C@@H](Cc1ccccc1)C(=O)N[C@@H](CO)C(=O)N[C@@H](CCCCNC(=O)CCC(=O)O)C(=O)Nc1ccc2c(C)cc(=O)oc2c1; assay: as §1
[4] = tested on: CC(=O)N[C@@H](CO)C(=O)N[C@@H](CC(C)C)C(=O)NCC(=O)N[C@@H](CCCCNC(=O)CCC(=O)O)C(=O)Nc1ccc2c(C)cc(=O)oc2c1; assay: as §1
[5] = tested on: Cc1cc(=O)oc2cc(NC(=O)[C@H](CCCCNC(=O)CCC(=O)O)NC(=O)OCc3ccccc3)ccc12; assay: (§2) Substrate activity at human N-terminal His-tagged SIRT5 (34 to 302 residues) expressed in Escherichia coli assessed as Km measured after 1 hr in presence of NAD+ and trypsin by Michaelis-Menten kinetic model based fluorescence assay
[6] = tested on: CC(=O)N[C@@H](CC(C)C)C(=O)NCC(=O)N[C@@H](CO)C(=O)N[C@@H](CCCCNC(=O)CCC(=O)O)C(=O)Nc1ccc2c(C)cc(=O)oc2c1; assay: as §2
[7] = tested on: CC(=O)N[C@@H](Cc1cnc[nH]1)C(=O)N[C@@H](Cc1ccccc1)C(=O)N[C@@H](CO)C(=O)N[C@@H](CCCCNC(=O)CCC(=O)O)C(=O)Nc1ccc2c(C)cc(=O)oc2c1; assay: as §2
[8] = tested on: CC(=O)N[C@@H](CO)C(=O)N[C@@H](CC(C)C)C(=O)NCC(=O)N[C@@H](CCCCNC(=O)CCC(=O)O)C(=O)Nc1ccc2c(C)cc(=O)oc2c1; assay: as §2
[9] = tested on: Cc1cc(=O)oc2cc(NC(=O)[C@H](CCCCNC(=O)CCC(=O)O)NC(=O)OCc3ccccc3)ccc12; assay: (§3) Substrate activity at human N-terminal His-tagged SIRT5 (34 to 302 residues) expressed in Escherichia coli assessed as Kcat measured after 1 hr in presence of NAD+ and trypsin by Michaelis-Menten kinetic model based fluorescence assay
[10] = tested on: CC(=O)N[C@@H](CC(C)C)C(=O)NCC(=O)N[C@@H](CO)C(=O)N[C@@H](CCCCNC(=O)CCC(=O)O)C(=O)Nc1ccc2c(C)cc(=O)oc2c1; assay: as §3
[11] = tested on: CC(=O)N[C@@H](Cc1cnc[nH]1)C(=O)N[C@@H](Cc1ccccc1)C(=O)N[C@@H](CO)C(=O)N[C@@H](CCCCNC(=O)CCC(=O)O)C(=O)Nc1ccc2c(C)cc(=O)oc2c1; assay: as §3
[12] = tested on: CC(=O)N[C@@H](CO)C(=O)N[C@@H](CC(C)C)C(=O)NCC(=O)N[C@@H](CCCCNC(=O)CCC(=O)O)C(=O)Nc1ccc2c(C)cc(=O)oc2c1; assay: as §3
[13] = tested on: Cc1cc(=O)oc2cc(NC(=O)[C@H](CCCCNC(=O)CCC(=O)O)NC(=O)OCc3ccccc3)ccc12; assay: (§4) Substrate activity at human N-terminal His-tagged SIRT5 (34 to 302 residues) expressed in Escherichia coli assessed as ratio of Kcat to Km measured after 1 hr in presence of NAD+ and trypsin by Michaelis-Menten kinetic model based fluorescence assay
[14] = tested on: CC(=O)N[C@@H](CC(C)C)C(=O)NCC(=O)N[C@@H](CO)C(=O)N[C@@H](CCCCNC(=O)CCC(=O)O)C(=O)Nc1ccc2c(C)cc(=O)oc2c1; assay: as §4
[15] = tested on: CC(=O)N[C@@H](Cc1cnc[nH]1)C(=O)N[C@@H](Cc1ccccc1)C(=O)N[C@@H](CO)C(=O)N[C@@H](CCCCNC(=O)CCC(=O)O)C(=O)Nc1ccc2c(C)cc(=O)oc2c1; assay: as §4
[16] = tested on: CC(=O)N[C@@H](CO)C(=O)N[C@@H](CC(C)C)C(=O)NCC(=O)N[C@@H](CCCCNC(=O)CCC(=O)O)C(=O)Nc1ccc2c(C)cc(=O)oc2c1; assay: as §4

NAD-dependent protein deacylase sirtuin-5, mitochondrial (Homo sapiens), Q9NXA8, sequence (Q9NXA8 whole entry): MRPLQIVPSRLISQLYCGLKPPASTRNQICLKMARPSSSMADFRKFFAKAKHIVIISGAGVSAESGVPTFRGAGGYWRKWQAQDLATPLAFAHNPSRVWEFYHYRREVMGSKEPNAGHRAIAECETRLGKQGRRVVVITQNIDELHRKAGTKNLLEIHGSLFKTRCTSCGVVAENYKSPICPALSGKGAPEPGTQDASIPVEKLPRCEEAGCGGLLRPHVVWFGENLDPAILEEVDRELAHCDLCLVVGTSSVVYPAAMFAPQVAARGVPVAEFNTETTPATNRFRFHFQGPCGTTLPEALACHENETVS

Substance: NAD-dependent protein deacylase sirtuin-5, mitochondrial (Homo sapiens), Q9NXA8
- Vmax [1]: 21.7 nM/min
- Vmax [2]: 116 nM/min
- Vmax [3]: 141 nM/min
- Vmax [4]: 136 nM/min
- Km [5]: 13.3 µM
- Km [6]: 47.6 µM
- Km [7]: 57.5 µM
- Km [8]: 31.6 µM
- kcat [9]: 2.6 10^-3/s
- kcat [10]: 38.8 10^-3/s
- kcat [11]: 46.9 10^-3/s
- kcat [12]: 45.5 10^-3/s
- kcat/Km [13]: 160 M⁻¹ s⁻¹
- kcat/Km [14]: 817 M⁻¹ s⁻¹
- kcat/Km [15]: 815 M⁻¹ s⁻¹
- kcat/Km [16]: 1440 M⁻¹ s⁻¹

— ChEMBL document CHEMBL4680222, “Sensitive fluorogenic substrates for sirtuin deacylase inhibitor discovery” (Eur J Med Chem, 2020)
